TEV Substrate Cleavage (%), 30 minute, TEV Substrate Cleavage (%), 60 minute and TEV Substrate Cleavage (%), 120 minute data for one substance are collected here from patent US20160319265.

The test system of the data set is TEV substrate.

Take AcTEV protease: the TEV Substrate Cleavage (%), 30 minute came out at 73.9%; the TEV Substrate Cleavage (%), 60 minute was found to be 91.6%; the TEV Substrate Cleavage (%), 120 minute was found to be 97.2%.
